Results reported in patent publication US20240252628A1 (ACCELERON PHARMA, published 2024).
One block for each binder: values may come before it.

Tests used:
Assay in all cases: SPR (Biacore), anti-Fc capture of receptor
GDF3 [1] = target: T1, GDF3 (UniProt Q9NR23 251-364)
T1 sequence (looked up): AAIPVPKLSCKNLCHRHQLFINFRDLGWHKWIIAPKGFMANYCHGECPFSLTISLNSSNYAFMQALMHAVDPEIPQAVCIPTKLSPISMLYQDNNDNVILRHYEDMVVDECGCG
Description: (§1) A Biacore™-based binding assay was used to compare ligand binding selectivity of the ActRIIB-Fc:ALK7-Fc heterodimeric complex described above with that of ActRIIB-Fc and ALK7-Fc homodimeric complexes. The ActRIIB-Fc:ALK7-Fc heterodimer, ActRIIB-Fc homodimer, and ALK7-Fc homodimer were independently captured onto the system using an anti-Fc antibody. Ligands were injected and allowed to flow over the captured receptor protein. Results are summarized in the table below, in which ligand off-rates (kd) most indicative of effective ligand traps are denoted by in bold.

activin C = target: T2, activin C (UniProt P55103 237-352)
T2 sequence (looked up): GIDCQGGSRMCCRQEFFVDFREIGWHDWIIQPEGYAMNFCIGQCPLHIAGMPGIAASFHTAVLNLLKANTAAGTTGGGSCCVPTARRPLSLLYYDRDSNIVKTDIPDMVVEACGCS
Description: as §1

BMP9 [2] = target: T3, BMP9 (UniProt Q9UK05 320-429)
T3 construct: also called GDF2
T3 sequence (looked up): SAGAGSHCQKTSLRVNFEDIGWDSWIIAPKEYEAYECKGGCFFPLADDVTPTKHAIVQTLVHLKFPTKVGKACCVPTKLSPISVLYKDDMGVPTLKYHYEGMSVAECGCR
Description: as §1

GDF8 [3] = target: T4, GDF8 (UniProt O14793 267-375)
T4 construct: also called myostatin
T4 sequence (looked up): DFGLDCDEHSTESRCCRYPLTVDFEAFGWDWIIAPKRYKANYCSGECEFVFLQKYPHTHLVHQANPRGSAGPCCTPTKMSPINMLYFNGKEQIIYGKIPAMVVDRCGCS
Description: as §1

GDF11 [4] = target: T5, GDF11 (UniProt O95390 299-407)
T5 construct: also called BMP11
T5 sequence (looked up): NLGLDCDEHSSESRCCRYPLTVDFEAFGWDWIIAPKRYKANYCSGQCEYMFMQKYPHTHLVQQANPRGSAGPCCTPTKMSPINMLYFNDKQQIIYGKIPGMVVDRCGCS
Description: as §1

BMP6 [5] = target: T6, BMP6 (UniProt P22004 382-513, limits assumed)
T6 sequence (looked up): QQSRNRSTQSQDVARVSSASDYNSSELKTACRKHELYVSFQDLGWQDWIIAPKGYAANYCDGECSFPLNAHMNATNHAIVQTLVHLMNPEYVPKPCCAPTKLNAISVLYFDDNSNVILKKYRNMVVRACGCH
Description: as §1

activin A [6] = target: T7, activin A (UniProt P08476 311-426)
T7 construct: The same holds for m2-m11
T7 sequence (looked up): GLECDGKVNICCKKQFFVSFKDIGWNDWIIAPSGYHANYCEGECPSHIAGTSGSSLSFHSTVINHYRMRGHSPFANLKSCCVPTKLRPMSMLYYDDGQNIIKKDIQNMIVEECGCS
Description: as §1

BMP5 = target: T8, BMP5 (UniProt P22003 317-454, limits assumed)
T8 sequence (looked up): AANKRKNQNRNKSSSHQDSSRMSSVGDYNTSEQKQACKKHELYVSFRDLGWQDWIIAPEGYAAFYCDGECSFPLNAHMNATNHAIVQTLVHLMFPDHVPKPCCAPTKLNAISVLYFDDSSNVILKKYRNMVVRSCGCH
Description: as §1

BMP10 [7] = target: T9, BMP10 (UniProt O95393 317-424)
T9 sequence (looked up): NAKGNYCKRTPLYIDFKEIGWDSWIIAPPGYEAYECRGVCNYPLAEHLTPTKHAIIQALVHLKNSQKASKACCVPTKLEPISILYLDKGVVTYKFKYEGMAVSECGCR
Description: as §1

activin AC = target: T10, activin AC (UniProt P08476 311-426; P55103 237-352)
T10 sequence (looked up) 1: T7 sequence (looked up)
T10 sequence (looked up) 2: T2 sequence (looked up)
Description: as §1

activin B [8] = target: T11, activin B (UniProt P09529 293-407)
T11 sequence (looked up): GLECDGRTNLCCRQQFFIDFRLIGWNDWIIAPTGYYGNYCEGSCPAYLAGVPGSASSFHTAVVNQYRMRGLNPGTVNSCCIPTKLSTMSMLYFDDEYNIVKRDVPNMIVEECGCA
Description: as §1

GDF3 [9] = target: T1, GDF3; remark: listed apart in the source
Description: as §1, with “ActRIIB-Fc:ALK4-Fc” for “ActRIIB-Fc:ALK7-Fc”, “ALK4-Fc homodimer” for “ALK7-Fc homodimeric”, “ALK4-Fc” for “ALK7-Fc”, “denoted” for “denoted by”

BMP9 [10] = target: T3, BMP9; remark: listed apart in the source
Description: as §1, with “ActRIIB-Fc:ALK4-Fc” for “ActRIIB-Fc:ALK7-Fc”, “ALK4-Fc homodimer” for “ALK7-Fc homodimeric”, “ALK4-Fc” for “ALK7-Fc”, “denoted” for “denoted by”

GDF8 [11] = target: T4, GDF8; remark: listed apart in the source
Description: as §1, with “ActRIIB-Fc:ALK4-Fc” for “ActRIIB-Fc:ALK7-Fc”, “ALK4-Fc homodimer” for “ALK7-Fc homodimeric”, “ALK4-Fc” for “ALK7-Fc”, “denoted” for “denoted by”

GDF11 [12] = target: T5, GDF11; remark: listed apart in the source
Description: as §1, with “ActRIIB-Fc:ALK4-Fc” for “ActRIIB-Fc:ALK7-Fc”, “ALK4-Fc homodimer” for “ALK7-Fc homodimeric”, “ALK4-Fc” for “ALK7-Fc”, “denoted” for “denoted by”

BMP6 [13] = target: T6, BMP6; remark: listed apart in the source
Description: as §1, with “ActRIIB-Fc:ALK4-Fc” for “ActRIIB-Fc:ALK7-Fc”, “ALK4-Fc homodimer” for “ALK7-Fc homodimeric”, “ALK4-Fc” for “ALK7-Fc”, “denoted” for “denoted by”

activin A [14] = target: T7, activin A; remark: listed apart in the source
Description: as §1, with “ActRIIB-Fc:ALK4-Fc” for “ActRIIB-Fc:ALK7-Fc”, “ALK4-Fc homodimer” for “ALK7-Fc homodimeric”, “ALK4-Fc” for “ALK7-Fc”, “denoted” for “denoted by”

BMP10 [15] = target: T9, BMP10; remark: listed apart in the source
Description: as §1, with “ActRIIB-Fc:ALK4-Fc” for “ActRIIB-Fc:ALK7-Fc”, “ALK4-Fc homodimer” for “ALK7-Fc homodimeric”, “ALK4-Fc” for “ALK7-Fc”, “denoted” for “denoted by”

activin B [16] = target: T11, activin B; remark: listed apart in the source
Description: as §1, with “ActRIIB-Fc:ALK4-Fc” for “ActRIIB-Fc:ALK7-Fc”, “ALK4-Fc homodimer” for “ALK7-Fc homodimeric”, “ALK4-Fc” for “ALK7-Fc”, “denoted” for “denoted by”

binding result (GDF3 [1]): no binding
binding result (activin C): no binding
binding result (BMP9 [2]): no binding
binding result (GDF8 [3]): no binding
binding result (GDF11 [4]): no binding
binding result (BMP6 [5]): no binding
binding result (activin A [6]): no binding
binding result (BMP5): no binding
binding result (BMP10 [7]): no binding
binding result (activin AC): no binding
binding result (activin B [8]): no binding
B1: ALK7-Fc homodimer (Fc fusion, not shown: a dimerising Fc or GST)
chain: LSPGLKCVCLLCDSSNFTCQTEGACWASVMLTNGKEQVIKSCVSLPELNAQVFCHSSNNVTKTECCFTDFCNNITLHLPTASPNAPKLGPME
notes: the whole extracellular entry is named

Kd (GDF3 [9]): 4.9 nM
koff (GDF3 [9]): 0.017 s⁻¹
kon (GDF3 [9]): 3.4e+06 M⁻¹ s⁻¹
Kd (BMP9 [10]): 3.4 nM
Kd (GDF8 [11]): 0.55 nM
koff (GDF8 [11]): 0.00021 s⁻¹
kon (GDF8 [11]): 390000 M⁻¹ s⁻¹
Kd (GDF11 [12]): 0.003 nM
koff (GDF11 [12]): 0.00011 s⁻¹
kon (GDF11 [12]): 3.8e+07 M⁻¹ s⁻¹
Kd (BMP6 [13]): 2.7 nM
koff (BMP6 [13]): 0.0055 s⁻¹
kon (BMP6 [13]): 2e+06 M⁻¹ s⁻¹
Kd (activin A [14]): 0.012 nM
koff (activin A [14]): 0.00015 s⁻¹
kon (activin A [14]): 1.3e+07 M⁻¹ s⁻¹
Kd (BMP10 [15]): 0.074 nM
koff (BMP10 [15]): 0.0041 s⁻¹
kon (BMP10 [15]): 5.6e+07 M⁻¹ s⁻¹
Kd (activin B [16]): 0.006 nM
koff (activin B [16]): 4e-05 s⁻¹
kon (activin B [16]): 7.1e+06 M⁻¹ s⁻¹
B2: ActRIIB-Fc:ALK4-Fc heterodimer (Fc fusion)
chain 1: GRGEAETRECIYYNANWELERTNQSGLERCEGEQDKRLHCYASWRNSSGTIELVKKGCWLDDFNCYDRQECVATEENPQVYFCCCEGNFCNERFTHLPEAGGPEVTYEPPPTAPTGGGTHTCPPCPAPELLGGPSVFLFPPKPKDTLMISRTPEVTCVVVDVSHEDPEVKFNWYVDGVEVHNAKTKPREEQYNSTYRVVSVLTVLHQDWLNGKEYKCKVSNKALPAPIEKTISKAKGQPREPQVYTLPPSRKEMTKNQVSLTCLVKGFYPSDIAVEWESNGQPENNYKTTPPVLKSDGSFFLYSKLTVDKSRWQQGNVFSCSVMHEALHNHYTQKSLSLSPGK
chain 2: SGPRGVQALLCACTSCLQANYTCETDGACMVSIFNLDGMEHHVRTCIPKVELVPAGKPFYCLSSEDLRNTHCCYTDYCNRIDLRVPSGHLKEPEHPSMWGPVETGGGTHTCPPCPAPELLGGPSVFLFPPKPKDTLMISRTPEVTCVVVDVSHEDPEVKFNWYVDGVEVHNAKTKPREEQYNSTYRVVSVLTVLHQDWLNGKEYKCKVSNKALPAPIEKTISKAKGQPREPQVYTLPPSREEMTKNQVSLTCLVKGFYPSDIAVEWESNGQPENNYDTTPPVLDSDGSFFLYSDLTVDKSRWQQGNVFSCSVMHEALHNHYTQKSLSLSPG
notes: the receptor domains are the same in all; also called ALK4-Fc:ActRIIB-Fc heterodimer; ActRIIB-Fc:ALK4-Fc heterodimeric complex
